Assays:
[1] = target: T1, MAGE-A4 peptide on HLA-A*02:01 (human); assay: multimer staining
T1 peptide: GVYDGREHTV

[2] = target: T2, MAGE-A8 peptide on HLA-A*02:01 (human); assay: multimer staining
T2 peptide: GLYDGREHSV

[3] = target: T3, soluble HLA-A2 MAGE-A4 (…) tetramer (human); assay: flow cytometry, HLA-A2 MAGE-A4 (…) tetramer staining of CHO cells transfected with the TCR
T3 construct: Bought tetramer reagent; also called MAGE-A4/HLA tetramer reagent; HLA-A02:01 MAGE-A4 tetramer
Protocol: (§1) Samples were then analyzed on an LSRFortessa X-20 (BD Biosciences, San Jose, Calif.). […] However, a more stringent cutoff, such as 3%, could be used to separate out Ag+ TCRs that behave better in the binding assay. Ag+ TCRs were determined by Next Generation Sequencing.

[4] = target: T4, soluble HLA-A2 MAGE-A8 (…) tetramer (human); assay: flow cytometry, HLA-A2 MAGE-A8 (…) tetramer staining of CHO cells transfected with the TCR
T4 construct: Bought tetramer reagent; also called MAGE-A8/HLA tetramer reagent; HLA-A02:01 MAGE-A8 tetramer
Protocol: as §1

[5] = target: T3, soluble HLA-A2 MAGE-A4 (…) tetramer; assay: flow cytometry tetramer staining; % with MAGE-A4 tetramer divided by % with MAGE-A8 tetramer (reference)
Protocol: as §1

| Binder | binding result [1] | binding result [2] | % tetramer in Ag+ gate (MAGE-A4) [3] | % tetramer in Ag+ gate (MAGE-A8) [4] | MAGE-A4/MAGE-A8 (ratio of % tetramer in Ag+ gate) [5] |
| --- | --- | --- | --- | --- | --- |
| PN45546 (TCR, V domains shown, full-length chains on transfected CHO cells; also called TCR No. 53) V domain 1: AQTVTQSQPEMSVQEAETVTLSCTYDTSESDYYLFWYKQPPSRQMILVIRQEAYKQQNATENRFSVNFQKAAKSFSLKISDSQLGDAAMYFCAYRSGAGGTSYGKLTFGQGTILTVHP V domain 2: DAGVTQSPTHLIKTRGQQVTLRCSPISGHKSVSWYQQVLGQGPQFIFQYYEKEERGRGNFPDRFSARQFPNYSSELNVNALLLGDSALYLCASSIRDTYGYTFGSGTRLTVV | recognises | recognises | 74.8% | 60.6% | 1.23 |
| PN45515 (TCR, V domains shown, stained with anti-mouse TCR constant region H57-597; full-length chains on transfected CHO cells; also called TCR No. 39) V domain 1: DAKTTQPPSMDCAEGRAANLPCNHSTISGNEYVYWYRQIHSQGPQYIIHGLKNNETNEMASLIITEDRKSSTLILPHATLRDTAVYYCIVRPYNAGNNRKLIWGLGTSLAVNP V domain 2: DVKVTQSSRYLVKRTGEKVFLECVQDMDHENMFWYRQDPGLGLRLIYFSYDVKMKEKGDIPEGYSVSREKKERFSLILESASTNQTSMYLCASSFGGGYYGYTFGSGTRLTVV | recognises | no recognition | 11.5% |  | 1150 |
| PN45494 (TCR, V domains shown, full-length chains on transfected CHO cells; also called TCR No. 50) V domain 1: GNSVTQIEGPVTLSEEAFLTINCTYTATGYPSLFWYVQYPGEGLQLLLKATKADDKGSNKGFEATYRKETTSFHLEKGSVQVSDSAVYFCALSDTRDDKTIFGKGTRLHILP V domain 2: DVKVTQSSRYLVKRTGEKVFLECVQDMDHENMFWYRQDPGLGLRLIYFSYDVKMKEKGDIPEGYSVSREKKERFSLILESASTNQTSMYLCASSLQGRYYGYTFGSGTRLTVV | recognises | recognises | 3.7% | 1.88% | 1.97 |
| PN45489 (TCR, V domains shown, stained with anti-mouse TCR constant region H57-597; full-length chains on transfected CHO cells; also called TCR No. 48) V domain 1: TQLLEQSPQFLSIQEGENLTVYCNSSSVFSSLQWYRQEPGEGPVLLVTVVTGGEVKKLKRLTFQFGDARKDSSLHITAAQPGDTGLYLCAEDGGSQGNLIFGKGTKLSVKP V domain 2: DVKVTQTSRYLVKRTGEKVFLECVQDMDHENMFWYRQDPGLGLRLIYFSYDVKMKEKGDIPEGYSVSREKKERFSLILESASTNQTSMYLCASSLQGRYYGYTFGSGTRLTVV | recognises | recognises | 16% | 6.39% | 2.5 |
| PN45481 (TCR, V domains shown, full-length chains on transfected CHO cells; also called TCR No. 54) V domain 1: GNSVTQMEGPVTLSEEAFLTINCTYTATGYPSLFWYVQYPGEGLQLLLKATKADDKGSNKGFEATYRKETTSFHLEKGSVQVSDSAVYFCALSDTRDDKIIFGKGTRLHILP V domain 2: DVKVTQSSRYLVKRTGEKVFLECVQDMDHENMFWYRQDPGLGLRLIYFSYDVKMKEKGDIPEGYSVSREKKERFSLILESASTNQTSMYLCASSLQGRYYGYTFGSGTRLTVV | recognises | recognises | 87.9% | 72.9% | 1.21 |
| PN45460 (TCR, V domains shown, full-length chains on transfected CHO cells; also called TCR No. 49) V domain 1: GNSVTQMEGPVTLSEEAFLTINCTYTATGYPSLFWYVQYPGEGLQLLLKATKADDKGSNKGFEATYRKETTSFHLEKGSVQVSDSAVYFCALSDTRDDKIIFGKGTRLHILP V domain 2: EAQVTQSPRYLITVTGKKLTVTCSQNMNHEYMSWYRQDPGLGLRQIYYSMNVEVTDKGDVPEGYKVSRKEKRNFPLILESPSPNQTSLYFCASSPGTGGFSPLHFGNGTRLTVT | recognises | recognises | 34.7% | 16.7% | 2.08 |
| PN45557 (TCR, V domains shown, full-length chains on transfected CHO cells; also called TCR No. 52) V domain 1: AQKITQTQPGMFVQEKEAVTLDCTYDTSDPSYGLFWYKQPSSGEMIFLIYQGSYDQQNATEGRYSLNFQKARKSANLVISASQLGDSAMYFCAMREGPGSGNTGKLIFGQGTTLQVKP V domain 2: NAGVTQTPKFRILKIGQSMTLQCAQDMNHNYMYWYRQDPGMGLKLIYYSVGAGITDKGEVPNGYNVSRSTTEYFPLRLELAAPSQTSVYFCASSYSEWQNYGYTFGSGTRLTVV | recognises | recognises | 94.7% | 66.3% | 1.43 |

From patent US20220324939A1 (Regeneron, published 2022)
